One test addresses HLA-B*15:01. Put plainly: IEDB peptide-MHC binding, purified MHC/competitive/radioactivity; filed as Kd, often an IC50 or EC50 that approximates it; ≥ and ≤ were set here for values at or beyond the usual limits of such assays.
A further test has as its target HLA-A*30:02. The test is described as above.
Another test addresses HLA-A*32:01. The test is described as above.
For a further test, the target named is HLA-A*30:01. Described as above.
The target in test [1] is HLA-B*40:01. The test is described as above.
A further test has as its target HLA-B*44:03. The description is as above.
The next test concerns the target HLA-B*44:02. The test is described as above.
In another test the target is HLA-B*57:01. Kind of test: IEDB peptide-MHC binding, purified MHC/direct/fluorescence; filed as Kd, often an IC50 or EC50 that approximates it; ≥ and ≤ were set here for values at or beyond the usual limits of such assays. To be noted: source organism: Yersinia pestis Antiqua.
The target of a further test is HLA-B*58:01. The test is described as above. To be noted: source organism: Yersinia pestis Antiqua.
Test [2] deals with HLA-B*40:01. The test is described as above.
Another test deals with HLA-B*18:01. The test is described as above.
The target of another test is HLA-B*53:01. Kind of test: IEDB peptide-MHC binding, purified MHC/competitive/radioactivity; filed as Kd, often an IC50 or EC50 that approximates it; ≥ and ≤ were set here for values at or beyond the usual limits of such assays. To be noted: source organism: Dengue virus 2 Jamaica/1409/1983.
A further test has as its target HLA-B*46:01. Kind of test: IEDB peptide-MHC binding, purified MHC/direct/fluorescence; filed as Kd, often an IC50 or EC50 that approximates it; ≥ and ≤ were set here for values at or beyond the usual limits of such assays.
A further test concerns the target HLA-A*31:01. Kind of test: IEDB peptide-MHC binding, purified MHC/competitive/radioactivity; filed as Kd, often an IC50 or EC50 that approximates it; ≥ and ≤ were set here for values at or beyond the usual limits of such assays. To be noted: source organism: Mammarenavirus brazilense.
In another test the target is HLA-A*33:01. Described as above. To be noted: source organism: Mammarenavirus brazilense.
A further test deals with HLA-A*68:01. Described as above. To be noted: source organism: Mammarenavirus brazilense.
Another test concerns the target HLA-A*03:01. The test is described as above. To be noted: source organism: Mammarenavirus brazilense.
Setting [3] is: source organism: Vaccinia virus WR.
The mark [4] stands for this setting: source organism: Dengue virus 3 Martinique/1243/1999.
The mark [5] stands for this setting: source organism: Dengue virus 4 Philippines/H241/1956.
Setting [6] is: source organism: Dengue virus 2 Jamaica/1409/1983.
The mark [7] stands for this setting: source organism: Dengue virus 1 Brazil/97-11/1997.
Setting [8] is: source organism: Mammarenavirus lassaense.
Where [9] appears, read: source organism: Dengue virus 4 Dominica/814669/1981.
Setting [10] is: source organism: Francisella tularensis subsp. holarctica LVS.

For KIRCEITSF, in the test with HLA-B*15:01 (setting [3]), the Kd was determined as 4.28 nM.
Consider KLITQFETY, for which the Kd was 20.2 nM with HLA-B*15:01 (setting [4]), 7780 nM in the test with HLA-A*30:02 (setting [4]) and 202 nM with HLA-A*32:01 (setting [4]).
Turning to KLRPKWLDA, the Kd in the test with HLA-A*30:01 (setting [5]) came out at 32.7 nM.
In the case of KYRYGTFLY, in the test with HLA-A*30:01 (setting [3]), the Kd came out at 1.07 nM.
LARWGTFKK: the Kd with HLA-A*30:01 (setting [4]) stood at 316 nM.
For LEFFLIVLL, the Kd is 123 nM in the test with HLA-B*40:01 [1] (setting [6]) and 17600 nM with HLA-B*44:03 (setting [6]).
For the sequence LETLMLVAL, the results for the Kd with HLA-B*44:02 (setting [5]) and with HLA-B*40:01 [1] (setting [5]) were 1100 nM and 3.49 nM, respectively.
For the sequence MANICWIYY, the Kd with HLA-B*57:01 stood at 256 nM; with HLA-B*58:01, 43.3 nM.
On to MATFKMRPMF, for which the dissociation constant Kd in the test with HLA-A*30:01 (setting [7]) is 1790 nM.
Consider MEGLKLLSL, for which the Kd with HLA-B*40:01 [2] (setting [8]) came to 160 nM; in the test with HLA-B*18:01 (setting [8]) it was 222 nM.
For the sequence MEIRPVKEK, the Kd with HLA-B*44:02 (setting [7]) came out at 640 nM; in the test with HLA-B*44:03 (setting [7]) it was 1010 nM.
Regarding MEKASFIEV, the results for the Kd with HLA-B*44:02 (setting [6]) and with HLA-B*40:01 [1] (setting [6]) were 320 nM and 1210 nM, respectively.
With MELIDGISL, the Kd with HLA-B*44:02 (setting [9]) is 375 nM; in the test with HLA-B*40:01 [1] (setting [9]) it was 2.29 nM; with HLA-B*44:03 (setting [9]) it was 226 nM.
With MERFNCSSF, the Kd with HLA-B*15:01 (source organism: Vaccinia virus Copenhagen) was 1.62 nM.
In the case of MTRDPLYIY, in the test with HLA-A*30:01 (setting [3]), the Kd came out at 16.9 nM.
For the sequence RAKRGTAQI, the Kd with HLA-A*30:01 (setting [7]) worked out at 137 nM.
As for REIPERSWNT, the Kd with HLA-B*40:01 [1] (setting [5]) was found to be 1480 nM.
With RGRIGRNPK, in the test with HLA-A*30:01 (setting [6]), the Kd came out at 18.7 nM.
As for RIIPKNNHA, in the test with HLA-B*15:01 (setting [3]), the Kd came out at 444 nM.
For the sequence RIKQQGIFG, in the test with HLA-A*30:01 (setting [4]), the Kd was determined as 19.9 nM.
Consider RLKGESRKTF, for which the Kd in the test with HLA-B*15:01 (setting [4]) turned out to be 300 nM.
In the case of RMAILGDTAW, the Kd with HLA-B*44:02 (setting [6]) worked out at 451 nM; with HLA-B*53:01, 21.4 nM; with HLA-B*15:01 (setting [6]), 233 nM.
As for RQEKGKSLLF, the Kd with HLA-B*15:01 (setting [6]) came to 42.3 nM.
Take RQRTPQDNQL: the Kd with HLA-B*15:01 (setting [7]) turned out to be 112 nM.
With RTKDTRIKA, in the test with HLA-A*30:01 (setting [3]), the Kd stood at 0.196 nM.
For SEIRWEESF, the Kd with HLA-B*15:01 (setting [3]) came to 46.9 nM.
In the case of SENEVKLTI, the values for the Kd with HLA-B*44:02 (setting [6]), with HLA-B*40:01 [1] (setting [6]) and with HLA-B*44:03 (setting [6]) were 0.814 nM, 373 nM and 14.1 nM, respectively.
Regarding SETFSMGLLC, in the test with HLA-B*44:03 (setting [5]), the Kd turned out to be 82.9 nM.
Take SLVMLLVHY: the Kd with HLA-B*15:01 (setting [5]) is 419 nM; with HLA-A*30:02 (setting [5]), 1600 nM.
In turn, SQEAEFTGY returned a Kd with HLA-B*46:01 (source organism: Yellow fever virus) not below 20000 nM.
For the sequence SQHNHRPGY, the results for the Kd in the test with HLA-B*15:01 (setting [4]) and with HLA-A*30:02 (setting [4]) were 91.2 nM and 28.7 nM, respectively.
Regarding STYYVHENK, the Kd in the test with HLA-A*31:01 came to 57.3 nM; with HLA-A*30:01 (source organism: Mammarenavirus brazilense) it was 3320 nM; in the test with HLA-A*33:01, 454 nM; with HLA-A*68:01, 13 nM; with HLA-A*03:01, 5.16 nM.
Regarding TEIASLPTY, the Kd turned out to be 13 nM in the test with HLA-B*44:02 (setting [5]) and 18.5 nM with HLA-B*44:03 (setting [5]).
As for TELKYSWKTW, the Kd in the test with HLA-B*44:02 (setting [6]) worked out at 37.9 nM; in the test with HLA-B*44:03 (setting [6]) it was 23.9 nM; in the test with HLA-A*32:01 (setting [6]), 4270 nM.
Turning to TTTDSRCPTQ, the Kd with HLA-A*30:01 (setting [7]) is not below 51200 nM.
As to VEDERFWDL, the Kd with HLA-B*40:01 [1] (setting [7]) came out at 155 nM.
Consider VEIGLGMPF, for which the Kd in the test with HLA-B*40:01 [2] (setting [10]) was 16.8 nM; with HLA-B*18:01 (setting [10]), not above 1 nM.
VTNIELEPPF: the Kd with HLA-A*30:01 (setting [5]) came to 468 nM.
In the case of WENNIKLTVV, the Kd with HLA-B*40:01 [1] (setting [4]) is 443 nM.
Take YNNFYFYSF: in the test with HLA-B*15:01 (setting [3]), the Kd is 1460 nM.
Take YQPEREKVY: the Kd with HLA-B*46:01 (source organism: West Nile virus) was not below 20000 nM.

Usually Kd stands for the free concentration of one partner at which half of the binding sites on the other are occupied at equilibrium, for simple one-to-one binding.

The record behind these values is the Immune Epitope Database (IEDB).
